The target of the assay is Nucleosome: Xenopus laevis histone octamer with Cy3-labeled H2A T120C on Widom 601 DNA (Xenopus laevis). In words: single-molecule fluorescence co-localisation with photobleaching step counting.

“Alexa647-labeled Chd1p (from UniProt P32657 1-1468) (enzyme)”: the fraction of nucleosomes with one Chd1p is 47.8%, the fraction of nucleosomes with three Chd1ps turned out to be 21.7% and the fraction of nucleosomes with two Chd1ps was 30.4%.

Values taken from publication doi:10.1101/376806.
